Experimental data taken from patent US20250032630A1, “B7H4 ANTIBODY-DRUG CONJUGATE AND USE THEREOF” (Duality Biologics (Suzhou) Co., Ltd., priority 2022, published 2025).

Legend:
human ICOSLG (B7-H2) = target: T1, human ICOSLG (B7-H2) (human, UniProt O75144 19-302); test: flow cytometry on HEK293T cells stably expressing the human protein, one concentration
T1 construct: whole, on cells
T1 sequence (looked up): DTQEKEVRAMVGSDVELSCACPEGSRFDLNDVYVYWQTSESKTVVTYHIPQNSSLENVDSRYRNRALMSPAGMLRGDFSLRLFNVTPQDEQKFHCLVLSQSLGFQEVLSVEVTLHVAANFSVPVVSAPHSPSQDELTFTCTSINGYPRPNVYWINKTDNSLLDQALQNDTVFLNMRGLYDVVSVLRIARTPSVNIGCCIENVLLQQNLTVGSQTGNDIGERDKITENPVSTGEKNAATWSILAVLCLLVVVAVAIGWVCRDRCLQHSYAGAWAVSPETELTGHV

human PD-L2 (B7-DC) = target: T2, human PD-L2 (B7-DC) (human, UniProt Q9BQ51 20-273); test: as above
T2 construct: whole, on cells; also called CD273
T2 sequence (looked up): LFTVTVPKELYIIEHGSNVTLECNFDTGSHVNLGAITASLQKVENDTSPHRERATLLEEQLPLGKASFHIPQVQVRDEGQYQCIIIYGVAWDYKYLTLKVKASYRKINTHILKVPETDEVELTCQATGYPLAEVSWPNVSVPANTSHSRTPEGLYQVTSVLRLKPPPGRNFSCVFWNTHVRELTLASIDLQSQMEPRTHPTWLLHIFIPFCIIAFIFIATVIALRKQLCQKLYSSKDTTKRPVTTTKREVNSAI

human CD276 (B7-H3) = target: T3, human CD276 (B7-H3) (human, UniProt Q5ZPR3 29-534); test: as above
T3 construct: whole, on cells
T3 sequence (looked up): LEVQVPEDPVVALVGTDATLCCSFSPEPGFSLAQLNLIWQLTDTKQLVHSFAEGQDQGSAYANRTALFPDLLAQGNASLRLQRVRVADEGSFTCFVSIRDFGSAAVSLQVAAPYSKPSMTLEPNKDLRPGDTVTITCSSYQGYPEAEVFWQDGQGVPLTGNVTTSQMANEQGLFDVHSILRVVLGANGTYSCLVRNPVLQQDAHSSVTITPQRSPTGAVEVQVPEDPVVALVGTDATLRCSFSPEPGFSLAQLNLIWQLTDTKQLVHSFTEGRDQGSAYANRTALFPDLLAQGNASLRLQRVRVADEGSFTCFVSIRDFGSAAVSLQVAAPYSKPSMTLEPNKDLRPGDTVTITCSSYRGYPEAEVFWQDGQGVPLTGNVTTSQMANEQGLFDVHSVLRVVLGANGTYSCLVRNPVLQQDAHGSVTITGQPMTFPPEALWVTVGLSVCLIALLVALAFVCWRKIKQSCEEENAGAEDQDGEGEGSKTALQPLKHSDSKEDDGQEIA

human PD-L1 (B7-H1) = target: T4, human PD-L1 (B7-H1) (human, UniProt Q9NZQ7 19-290); test: as above
T4 construct: whole, on cells; also called CD274
T4 sequence (Q9NZQ7 19-290): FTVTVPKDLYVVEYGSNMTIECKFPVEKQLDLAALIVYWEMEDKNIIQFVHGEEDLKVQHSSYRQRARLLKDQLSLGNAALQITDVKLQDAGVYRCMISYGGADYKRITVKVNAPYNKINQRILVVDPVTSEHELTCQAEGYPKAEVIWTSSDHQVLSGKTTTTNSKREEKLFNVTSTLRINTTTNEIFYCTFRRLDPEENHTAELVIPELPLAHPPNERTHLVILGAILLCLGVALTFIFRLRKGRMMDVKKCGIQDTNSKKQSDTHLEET

human VISTA (B7-H5) = target: T5, human VISTA (B7-H5) (human, UniProt Q9H7M9 33-311); test: as above
T5 construct: whole, on cells
T5 sequence (looked up): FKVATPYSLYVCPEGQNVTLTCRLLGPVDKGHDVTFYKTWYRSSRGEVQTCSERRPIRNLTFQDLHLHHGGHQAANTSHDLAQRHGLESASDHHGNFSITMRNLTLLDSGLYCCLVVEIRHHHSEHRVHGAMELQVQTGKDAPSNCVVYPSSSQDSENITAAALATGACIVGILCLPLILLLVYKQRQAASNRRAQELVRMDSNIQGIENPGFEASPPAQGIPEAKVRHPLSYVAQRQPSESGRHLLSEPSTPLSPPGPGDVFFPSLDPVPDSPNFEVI

human CD86 (B7-2) = target: T6, human CD86 (B7-2) (human, UniProt P42081 24-329); test: as above
T6 construct: whole, on cells
T6 sequence (looked up): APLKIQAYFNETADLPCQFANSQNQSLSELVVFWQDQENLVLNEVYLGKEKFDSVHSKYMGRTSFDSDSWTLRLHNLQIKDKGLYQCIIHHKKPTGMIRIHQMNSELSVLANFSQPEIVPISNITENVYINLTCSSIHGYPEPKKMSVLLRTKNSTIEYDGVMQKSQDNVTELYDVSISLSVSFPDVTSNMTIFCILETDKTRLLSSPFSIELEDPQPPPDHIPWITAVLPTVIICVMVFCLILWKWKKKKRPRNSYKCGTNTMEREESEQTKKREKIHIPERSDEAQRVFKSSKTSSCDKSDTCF

human CD80 (B7-1) = target: T7, human CD80 (B7-1) (human, UniProt P33681 35-288); test: as above
T7 construct: whole, on cells
T7 sequence (looked up): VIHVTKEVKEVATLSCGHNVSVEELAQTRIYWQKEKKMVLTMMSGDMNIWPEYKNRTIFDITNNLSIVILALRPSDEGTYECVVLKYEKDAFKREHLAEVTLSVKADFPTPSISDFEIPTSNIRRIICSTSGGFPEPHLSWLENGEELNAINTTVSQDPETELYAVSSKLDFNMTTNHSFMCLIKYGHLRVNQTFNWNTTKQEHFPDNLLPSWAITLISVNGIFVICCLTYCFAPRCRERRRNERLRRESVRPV

human B7H4 = target: T8, human B7H4 (human, UniProt Q7Z7D3 25-282); test: flow cytometry on human B7H4-transfected HEK293T cells, PE anti-human IgG Fc secondary antibody
T8 construct: whole, on cells; also called Human B7H4-293T; B7S1
T8 sequence (looked up): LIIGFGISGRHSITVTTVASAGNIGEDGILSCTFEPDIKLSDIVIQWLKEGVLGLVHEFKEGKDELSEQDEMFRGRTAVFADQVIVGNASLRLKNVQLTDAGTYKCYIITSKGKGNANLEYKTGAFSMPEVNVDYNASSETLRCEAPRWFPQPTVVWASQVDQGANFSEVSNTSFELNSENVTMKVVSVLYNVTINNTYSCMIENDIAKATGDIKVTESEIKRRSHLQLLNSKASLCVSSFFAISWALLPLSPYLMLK

B1: antibody-drug conjugate DB1001-X2 (antibody, DAR 5.4, V domains shown)
VH: QVQLVESGGGVVQPGRSLRLSCAASGFTFRSFGMHWVRQAPGKGLEWVAVISYDASNEYYADSVKGRFIISRDNSKDTLYLQMNSLRAGDTAVYYCAKGGALRWYFAYWGQGTLVTVSS
VL: EIVMTQSPATLSVSPGERATLSCRASQSISSNLGWYQQKPGQAPRLLIYGASTRATGIPARFSGSGSGTEFTLTISSLQSEDFAVYYCQQYRSWPPLTFGGGTKVEIKR
modifications: linker-cytotoxin X2 (payload P-III-30) coupled after TCEP reduction of the antibody; drug-to-antibody ratio (DAR) of 5.4; conjugation residues not stated
notes: also called anti-B7H4 ADC DB1001-X2
**Q.** Does B1 bind (human ICOSLG (B7-H2))?
**A.** Result: no binding (tested: 100 nM or 300 nM)

**Q.** Does B1 bind (human PD-L2 (B7-DC))?
**A.** Result: no binding (tested: 100 nM or 300 nM)

**Q.** Does B1 bind (human CD276 (B7-H3))?
**A.** Result: no binding (tested: 100 nM or 300 nM)

**Q.** Does B1 bind (human PD-L1 (B7-H1))?
**A.** Result: no binding (tested: 100 nM or 300 nM)

**Q.** Does B1 bind (human VISTA (B7-H5))?
**A.** Result: no binding (tested: 100 nM or 300 nM)

**Q.** Does B1 bind (human CD86 (B7-2))?
**A.** Result: no binding (tested: 100 nM or 300 nM)

**Q.** Does B1 bind (human CD80 (B7-1))?
**A.** Result: no binding (tested: 100 nM or 300 nM)

**Q.** What about the EC50 (human B7H4) of the same binder?
**A.** Its EC50 is 2.18 nM.
